Where two headings read alike, the source gives them in different places. Blank lines part the entries; values can stand above or below the binder they belong to.
Legend:
Assay in all cases: ITC
[1] = target: ZYG11B (residues 490–728) N523A (UniProt Q9C0D3 490-728, N523A)
[2] = target: T1, ZER1 (residues 469–766) (human, UniProt Q7Z7L7 469-766)
T1 chain: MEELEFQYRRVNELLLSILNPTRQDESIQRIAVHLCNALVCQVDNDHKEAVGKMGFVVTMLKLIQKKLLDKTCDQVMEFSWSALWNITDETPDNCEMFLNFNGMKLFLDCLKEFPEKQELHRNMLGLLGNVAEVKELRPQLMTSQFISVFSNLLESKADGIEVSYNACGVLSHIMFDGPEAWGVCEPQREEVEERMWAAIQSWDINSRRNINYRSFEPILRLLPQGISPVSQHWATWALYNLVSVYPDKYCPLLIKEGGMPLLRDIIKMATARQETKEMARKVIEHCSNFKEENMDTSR

[3] = target: T1, ZER1 (residues 469–766)
[4] = target: T2, ZER1 (residues 469–766) N553A (human, UniProt Q7Z7L7 469-766, N553A)
T2 sequence (Q7Z7L7 other isoform, or with tags, fused parts or gaps N553A | N553A): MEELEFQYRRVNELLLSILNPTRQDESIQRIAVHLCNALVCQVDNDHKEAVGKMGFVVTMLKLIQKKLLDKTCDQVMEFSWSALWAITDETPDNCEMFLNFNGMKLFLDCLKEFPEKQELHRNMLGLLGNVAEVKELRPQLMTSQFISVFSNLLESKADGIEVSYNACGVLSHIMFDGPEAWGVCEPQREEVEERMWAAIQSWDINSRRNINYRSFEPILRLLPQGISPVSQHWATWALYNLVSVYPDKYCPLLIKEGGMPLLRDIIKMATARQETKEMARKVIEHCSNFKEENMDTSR

[5] = target: ZYG11B (residues 490–728) (UniProt Q9C0D3 490-728)
ZYG11B (residues 490–728), sequence (Q9C0D3 other isoform, or with tags, fused parts or gaps): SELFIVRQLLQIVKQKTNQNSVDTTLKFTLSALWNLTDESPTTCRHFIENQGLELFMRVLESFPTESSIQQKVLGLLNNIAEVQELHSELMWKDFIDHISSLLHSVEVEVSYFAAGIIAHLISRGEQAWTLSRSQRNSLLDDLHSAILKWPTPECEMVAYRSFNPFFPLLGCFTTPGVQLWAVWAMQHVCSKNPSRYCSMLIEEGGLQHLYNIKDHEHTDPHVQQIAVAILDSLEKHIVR

[6] = target: T2, ZER1 (residues 469–766) N553A; remark: listed apart in the source

ZYG11B (residues 490–728) N523A, sequence (Q9C0D3 other isoform, or with tags, fused parts or gaps N523A | N523A): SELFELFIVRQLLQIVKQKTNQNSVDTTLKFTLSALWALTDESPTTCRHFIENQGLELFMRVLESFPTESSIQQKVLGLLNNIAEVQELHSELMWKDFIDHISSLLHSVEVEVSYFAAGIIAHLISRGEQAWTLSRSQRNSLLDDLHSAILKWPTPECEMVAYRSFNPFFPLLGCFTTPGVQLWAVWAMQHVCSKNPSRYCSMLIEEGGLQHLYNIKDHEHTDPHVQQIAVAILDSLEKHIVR

Kd [1]: > 50 µM
B1: AFLHVGQD peptide (peptide)
peptide: AFLHVGQD

Kd [1]: 2.9 µM
B2: CFLHVGQD peptide (peptide)
peptide: CFLHVGQD

Kd [2]: 3.8 µM
B3: free H2A peptide (sequence: SGRGKQGGKA) (peptide)
peptide: SGRGKQGGKA
modifications: Printed N-terminus MEEL is read as start Met plus native residues from 469 (by analogy with SELF in ZYG11B); C-terminal His tag of pNIC-CH left out

Kd [3]: 4.2 µM
B4: GFLHVGQD peptide (peptide)
peptide: GFLHVGQD
modifications: Printed N-terminus MEEL is read as start Met plus native residues from 469 (by analogy with SELF in ZYG11B); C-terminal His tag of pNIC-CH left out

Kd [3]: 3.1 µM
B5: TFLHVGQD peptide (peptide)
peptide: TFLHVGQD
modifications: Printed N-terminus MEEL is read as start Met plus native residues from 469 (by analogy with SELF in ZYG11B); C-terminal His tag of pNIC-CH left out

Kd [4]: 7.9 µM
B6: TFLHVGQD peptide (peptide)
peptide: TFLHVGQD
modifications: N-terminus MEEL read as start Met plus native residues from 469; His tag left out

Kd [5]: 6.8 µM
B7: SFLHVGQD peptide (peptide)
peptide: SFLHVGQD
modifications: Printed N-terminus SELF is read as vector Ser plus native E490-L491-F492 (numbering from the 7XYW entity, 485-728 starting AQLGTELF); His-SUMO tag left out

Kd [1]: 4.9 µM
B8: SFLHVGQD peptide (peptide)
peptide: SFLHVGQD

Kd [3]: 1.6 µM
B9: AFLHVGQD peptide (peptide)
peptide: AFLHVGQD
modifications: Printed N-terminus MEEL is read as start Met plus native residues from 469 (by analogy with SELF in ZYG11B); C-terminal His tag of pNIC-CH left out

Kd [3]: 1.3 µM
B10: SFLHVGQD peptide (peptide)
peptide: SFLHVGQD
modifications: Printed N-terminus MEEL is read as start Met plus native residues from 469 (by analogy with SELF in ZYG11B); C-terminal His tag of pNIC-CH left out

Kd [5]: 7.1 µM
B11: AFLHVGQD peptide (peptide)
peptide: AFLHVGQD
modifications: Printed N-terminus SELF is read as vector Ser plus native E490-L491-F492 (numbering from the 7XYW entity, 485-728 starting AQLGTELF); His-SUMO tag left out

Kd [3]: 3.9 µM
B12: CFLHVGQD peptide (peptide)
peptide: CFLHVGQD
modifications: Printed N-terminus MEEL is read as start Met plus native residues from 469 (by analogy with SELF in ZYG11B); C-terminal His tag of pNIC-CH left out

Kd [5]: 3 µM
B13: CFLHVGQD peptide (peptide)
peptide: CFLHVGQD
modifications: Printed N-terminus SELF is read as vector Ser plus native E490-L491-F492 (numbering from the 7XYW entity, 485-728 starting AQLGTELF); His-SUMO tag left out

Kd [6]: 7.1 µM
B14: SFLHVGQD peptide (peptide)
peptide: SFLHVGQD
modifications: N-terminus MEEL read as start Met plus native residues from 469; His tag left out

Kd [5]: 2.5 µM
B15: GFLHVGQD peptide (peptide)
peptide: GFLHVGQD
modifications: Printed N-terminus SELF is read as vector Ser plus native E490-L491-F492 (numbering from the 7XYW entity, 485-728 starting AQLGTELF); His-SUMO tag left out

Kd [4]: 7.6 µM
B16: AFLHVGQD peptide (peptide)
peptide: AFLHVGQD
modifications: N-terminus MEEL read as start Met plus native residues from 469; His tag left out

Reference: article PMC9741652 (2022)
